Values quoted from earlier work, collected in article PMC5408752.

Experiments:
[1] = target: NisA precursor (Lactococcus lactis) (UniProt P13068); assay: isothermal titration calorimetry
[2] = target: NisA leader leader (Lactococcus lactis) (UniProt P13068); assay: isothermal titration calorimetry
[3] = target: nisin (Lactococcus lactis) (UniProt P13068); assay: NMR titration

Substance	Kd [1]	Kd [2]	Kd [3]
NisC (from UniProt Q03202)	2 µM	3.8 µM	–
NisI CTD (from UniProt P42708)	–	–	22 µM
